Experimental data as given in patent US20210063414A1, “METHODS FOR PREVENTING AND/OR TREATING BONE LOSS CONDITIONS BY MODULATING IRISIN” (Dana-Farber Cancer Institute, Inc., priority 2018, published 2021).

Tested on: epididymal fat (eWAT)
Assay: Irisin injection in mice: thermogenic and creatine cycle gene mRNA in epididymal fat
Assay type: in vivo
Conditions: irisin injections 6 days
Protocol: Eight week old mice were injected with indicated dose of irisin or 1 mg/kg CL316243 for 6 days. Epididymal fats (eWAT) were collected and indicated genes mRNA level was analyzed by qPCR. GATM is the first and rate-limiting step of creatine synthesis (Sandell et al. (2003) Proc. Natl. Acad. Sci. U.S.A. 100:4622-4627).
Certain materials and methods were used to generate the results described herein. For example, the data shown in FIG. 1A resulted from MLO-Y4 (an osteocyte-like cell line) cells treated with the indicated concentration of irisin and hydrogen peroxide for 4 hours. Cells were stained with Hoechst 33342 (ThermoFisher Scientific, catalog number H3570) and Eth-D1 (ThermoFisher Scientific, catalog number E1169) and analyzed to determine the percentage of cell death using ImageJ. […] Co-precipitated irisin was analyzed by immunoblot analysis against flag tag (Sigma Aldrich, catalog number A8592). The data shown in FIGS. 5A and 5B were generated from MLO-Y4 cells treated and analyzed as in the experiments used to generate the data shown in FIG. 2D, except that pre-treatment of 100 nM RGDS (FIG. 5A) or echistatin (R & D Systems Inc., catalog number 3202/100U) (FIG. 5B) for 10 minutes was performed before irisin treatment. […] Sclerostin mRNA level was analyzed by qPCR (FIG. 7A). […]

B1: irisin: secreted cleaved form of FNDC5; recombinant human/mouse irisin with C-terminal his tag produced in HEK293 cells (protein)
chain: DSPSAPVNVTVRHLKANSAVVSWDVLEDEVVIGFAISQQKKDVRMLRFIQEVNTTTRSCALWDLEEDTEYIVHVQAISIQGQSPASEPVLFKTPREAEKMASKNKDEVTMKE
modifications: left off: small tags and cut ends
notes: secreted cleaved form of FNDC5; recombinant human/mouse irisin with C-terminal his tag produced in HEK293 cells
expression of futile creatine cycle genes (GATM, CKMT2, CKB): also increased expression
mRNAs of classical thermogenic pathway genes (UCP1, DIO 2): increased expression
